The text below walks through data of patent US20240279281A1, “Peptide Inhibitors of Interleukin-23 Receptor” (Janssen Pharmaceutica NV, priority 2023, published 2024).

The target in this assay is T1, interleukin-23 receptor (IL-23R), Q5VWK5.
T1 chain: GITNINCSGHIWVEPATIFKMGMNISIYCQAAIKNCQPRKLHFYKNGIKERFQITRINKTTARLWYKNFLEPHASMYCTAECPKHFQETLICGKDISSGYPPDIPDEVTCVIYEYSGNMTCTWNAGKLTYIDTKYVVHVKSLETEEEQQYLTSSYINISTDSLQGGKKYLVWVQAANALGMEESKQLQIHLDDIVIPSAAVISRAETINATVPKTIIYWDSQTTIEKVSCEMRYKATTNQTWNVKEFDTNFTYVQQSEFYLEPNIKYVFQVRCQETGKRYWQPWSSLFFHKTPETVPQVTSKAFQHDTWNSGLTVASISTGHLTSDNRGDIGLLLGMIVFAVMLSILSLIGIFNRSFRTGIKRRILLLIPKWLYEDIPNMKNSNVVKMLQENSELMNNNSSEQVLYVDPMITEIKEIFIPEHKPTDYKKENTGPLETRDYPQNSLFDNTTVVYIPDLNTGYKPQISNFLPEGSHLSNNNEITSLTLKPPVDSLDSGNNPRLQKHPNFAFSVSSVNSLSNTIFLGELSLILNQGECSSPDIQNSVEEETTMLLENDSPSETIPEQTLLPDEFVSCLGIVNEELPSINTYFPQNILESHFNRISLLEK
Put plainly: cell-based or functional assay.

Starred links: 1 amine or outer side, 2 acyl side, 3 side chain; linkers in the order of their positions; H or OH if unused. Positions of bridges follow the written chain, without caps; N, C: chain ends. Non-standard residues stand in square brackets, D forms with d. No end group written: not given here. N,N‑dimethylasparagine = N,N-dimethylasparagine, CN(C)C(=O)C[C@H](N[*:1])C(=O)[*:2]; 2Nal(6-OH) = N[C@@H](Cc1ccc2cc(O)ccc2c1)C(=O)O; Trp(7-Me) = Cc1cccc2c(C[C@H](N)C(=O)O)c[nH]c12; d(hLys(Me3)) = C[N+](C)(C)CCCCC[C@@H](N)C(=O)O; AEF = NCCOc1ccc(C[C@H](N)C(=O)O)cc1; 3Pal = N[C@@H](Cc1cccnc1)C(=O)O; NMeK = CN[C@@H](CCCCN)C(=O)O; Pen = CC(C)(S)[C@H](N)C(=O)O; lipid = not defined here; Thp = NC1(C(=O)O)CCOCC1; Sar = CNCC(=O)O A value given as a limit tells only on which side of the number the result lay.

B1: SEQ ID NO: 221 (peptide)
peptide: R[Pen]NT[Trp(7-Me)]K(Ac)[Pen][2‑amino‑3‑(4-(2-aminoethoxy)phenyl)propanoic acid][2‑amino‑3‑(6-hydroxynaphthalen-2-yl)propanoic acid][Thp]K(Ac)N[3Pal][Sar]K(lipid)
modifications: disulfide 2-7 (inferred); ends not checked; also: Lys15 lipidated, lipid not given here
In turn, B1 returned a PBMC pSTAT3 IC50 above 1 nM.

B2: SEQ ID NO: 241 (peptide)
peptide: [Pen]NT[Trp(7-Me)]K(Ac)[Pen][AEF][2Nal(6-OH)][Thp]K(Ac)N[3Pal][Sar]K(lipid)
modifications: disulfide 1-6 (inferred); ends not checked; also: Lys14 lipidated, lipid not given here
Take B2: the PBMC pSTAT3 IC50 was below 1 nM.

B3: SEQ ID NO: 210 (peptide)
peptide: [(R)‑3‑carboxy‑2‑(4-(((R)-5-carboxy-5-hydrazineylpentyl)amino)-4-oxobutanamido)‑N,N,N‑trimethylpropan‑1‑aminium][Pen]NT[Trp(7-Me)]K(Ac)[Pen][2‑amino‑3‑(4-(2-aminoethoxy)phenyl)propanoic acid][2‑amino‑3‑(6-hydroxynaphthalen-2-yl)propanoic acid][Thp]EN[3Pal][NMeK]
modifications: disulfide 2-7 (inferred); not fully specified (residue 14); ends not checked; also: X14: lipidated N-methyl-lysine, lipid not given here
B3 displayed a PBMC pSTAT3 IC50 below 1 nM.

B4: SEQ ID NO: 229 (peptide)
peptide: K(lipid)[Pen]NT[Trp(7-Me)]K(Ac)[Pen][AEF][2Nal(6-OH)][Thp]EN[3Pal][Sar]
modifications: disulfide 2-7 (inferred); ends not checked; also: Lys1 lipidated, lipid not given here
Turning to B4, the PBMC pSTAT3 IC50 was below 1 nM.

B5: SEQ ID NO: 218 (peptide)
peptide: R[Pen]NT[Trp(7-Me)]K(Ac)[Pen][2‑amino‑3‑(4-(2-aminoethoxy)phenyl)propanoic acid][2‑amino‑3‑(6-hydroxynaphthalen-2-yl)propanoic acid][Thp]EN[3Pal][Sar]K(lipid)
modifications: disulfide 2-7 (inferred); ends not checked; also: Lys15 lipidated, lipid not given here
On to B5, for which the PBMC pSTAT3 IC50 is above 1 nM.

B6: SEQ ID NO: 204 (peptide)
peptide: [(R)‑3‑carboxy‑2‑(4-(((R)-5-carboxy-5-hydrazineylpentyl)amino)-4-oxobutanamido)‑N,N,N‑trimethylpropan‑1‑aminium][Pen]NT[Trp(7-Me)]K(Ac)[Pen][2‑amino‑3‑(4-(2-aminoethoxy)phenyl)propanoic acid][2‑amino‑3‑(6-hydroxynaphthalen-2-yl)propanoic acid][Thp]EN[3Pal][NMeK]
modifications: disulfide 2-7 (inferred); not fully specified (residue 14); ends not checked; also: X14: lipidated N-methyl-lysine, lipid not given here
In turn, B6 returned a PBMC pSTAT3 IC50 below 1 nM.

B7: SEQ ID NO: 217 (peptide)
peptide: R[Pen]NT[Trp(7-Me)]K(Ac)[Pen][2‑amino‑3‑(4-(2-aminoethoxy)phenyl)propanoic acid][2‑amino‑3‑(6-hydroxynaphthalen-2-yl)propanoic acid][Thp]EN[3Pal][Sar]
modifications: disulfide 2-7 (inferred); ends not checked
As to B7, the PBMC pSTAT3 IC50 was below 0.1 nM.

B8: SEQ ID NO: 255 (peptide)
peptide: R[Pen]NT[Trp(7-Me)]K(Ac)[Pen][2‑amino‑3‑(4-(2-aminoethoxy)phenyl)propanoic acid][2‑amino‑3‑(6-hydroxynaphthalen-2-yl)propanoic acid][Thp]K(Ac)N[3Pal][Sar]K
modifications: disulfide 2-7 (inferred); not fully specified (residue 15); ends not checked; also: K15: lipidated lysine, lipid not given here
In turn, B8 gave a PBMC pSTAT3 IC50 below 1 nM.

B9: SEQ ID NO: 244 (peptide)
peptide: R[Pen]NT[Trp(7-Me)]K(Ac)[Pen][AEF][2Nal(6-OH)][Thp]EN[3Pal][Sar]K(lipid)
modifications: disulfide 2-7 (inferred); ends not checked; also: Lys15 lipidated, lipid not given here
For the molecule B9, the PBMC pSTAT3 IC50 is below 1 nM.

B10: SEQ ID NO: 220 (peptide)
peptide: R[Pen]NT[Trp(7-Me)]K(Ac)[Pen][2‑amino‑3‑(4-(2-aminoethoxy)phenyl)propanoic acid][2‑amino‑3‑(6-hydroxynaphthalen-2-yl)propanoic acid][Thp]K(Ac)N[3Pal][Sar]
modifications: disulfide 2-7 (inferred); ends not checked
In turn, B10 showed a PBMC pSTAT3 IC50 below 1 nM.

B11: SEQ ID NO: 239 (peptide)
peptide: [d(hLys(Me3))][Pen][N,N‑dimethylasparagine]T[Trp(7-Me)]K(lipid)[Pen][AEF][2Nal(6-OH)][Thp]EN[3Pal][Sar]
modifications: disulfide 2-7 (inferred); ends not checked; also: Lys6 lipidated, lipid not given here
Regarding B11, the PBMC pSTAT3 IC50 is below 1 nM.

B12: SEQ ID NO: 263 (peptide)
peptide: [(R)‑3‑carboxy‑2‑(4-(((R)-5-carboxy-5-hydrazineylpentyl)amino)-4-oxobutanamido)‑N,N,N‑trimethylpropan‑1‑aminium][Pen]NT[Trp(7-Me)]K(Ac)[Pen][2‑amino‑3‑(4-(2-aminoethoxy)phenyl)propanoic acid][2‑amino‑3‑(6-hydroxynaphthalen-2-yl)propanoic acid][Thp]EN[3Pal][Sar]
modifications: disulfide 2-7 (inferred); ends not checked
Regarding B12, the PBMC pSTAT3 IC50 was below 1 nM.

B13: SEQ ID NO: 264 (peptide)
peptide: [(R)‑3‑carboxy‑2‑(4-(((R)-5-carboxy-5-hydrazineylpentyl)amino)-4-oxobutanamido)‑N,N,N‑trimethylpropan‑1‑aminium][Pen]NT[Trp(7-Me)]K(Ac)[Pen][2‑amino‑3‑(4-(2-aminoethoxy)phenyl)propanoic acid][2‑amino‑3‑(6-hydroxynaphthalen-2-yl)propanoic acid][Thp]EN[3Pal][Sar]
modifications: disulfide 2-7 (inferred); ends not checked
For the molecule B13, the PBMC pSTAT3 IC50 is below 10 pM.

B14: SEQ ID NO: 214 (peptide)
peptide: [Pen]ET[Trp(7-Me)]K(lipid)[Pen][2‑amino‑3‑(4-(2-aminoethoxy)phenyl)propanoic acid][2‑amino‑3‑(6-hydroxynaphthalen-2-yl)propanoic acid][Thp]K(Ac)N[3Pal][Sar]
modifications: disulfide 1-6 (inferred); ends not checked; also: K5: lipidated lysine, lipid not given here
As to B14, the PBMC pSTAT3 IC50 is below 1 nM.

B15: SEQ ID NO: 254 (peptide)
peptide: R[Pen]NT[Trp(7-Me)]K(Ac)[Pen][2‑amino‑3‑(4-(2-aminoethoxy)phenyl)propanoic acid][2‑amino‑3‑(6-hydroxynaphthalen-2-yl)propanoic acid][Thp]K(Ac)N[3Pal][Sar]K
modifications: disulfide 2-7 (inferred); not fully specified (residue 15); ends not checked; also: K15: lipidated lysine, lipid not given here
With B15, the PBMC pSTAT3 IC50 was below 1 nM.

B16: SEQ ID NO: 256 (peptide)
peptide: [Pen]NT[Trp(7-Me)]K(Ac)[Pen][2‑amino‑3‑(4-(2-aminoethoxy)phenyl)propanoic acid][2‑amino‑3‑(6-hydroxynaphthalen-2-yl)propanoic acid][Thp]K(Ac)N[3Pal][Sar]K
modifications: disulfide 1-6 (inferred); not fully specified (residue 14); ends not checked; also: K14: lipidated lysine, lipid not given here
The molecule B16 returned a PBMC pSTAT3 IC50 below 1 nM.

B17: SEQ ID NO: 216 (peptide)
peptide: K(lipid)[Pen]NT[Trp(7-Me)]K(Ac)[Pen][2‑amino‑3‑(4-(2-aminoethoxy)phenyl)propanoic acid][2‑amino‑3‑(6-hydroxynaphthalen-2-yl)propanoic acid][Thp]K(Ac)N[3Pal][Sar]
modifications: disulfide 2-7 (inferred); ends not checked; also: Lys1 lipidated, lipid not given here
The molecule B17 returned a PBMC pSTAT3 IC50 below 0.1 nM.

B18: SEQ ID NO: 215 (peptide)
peptide: [Pen]ET[Trp(7-Me)]K(Ac)[Pen][2‑amino‑3‑(4-(2-aminoethoxy)phenyl)propanoic acid][2‑amino‑3‑(6-hydroxynaphthalen-2-yl)propanoic acid][Thp]K(lipid)N[3Pal][Sar]
modifications: disulfide 1-6 (inferred); ends not checked; also: K10: lipidated lysine, lipid not given here
The molecule B18 gave a PBMC pSTAT3 IC50 below 0.1 nM.
